Literature values, collected in article PMC4026351.
Read-outs that look alike come from different tables or passages of the source.

Columns and labels:
[1] = molecular target: BtuB (Escherichia coli) (UniProt P06129)
[2] = molecular target: BtuB (Escherichia coli) (UniProt P06129); remark: listed apart in the source

Sequence of UniProt P06129 (P06129 21-614): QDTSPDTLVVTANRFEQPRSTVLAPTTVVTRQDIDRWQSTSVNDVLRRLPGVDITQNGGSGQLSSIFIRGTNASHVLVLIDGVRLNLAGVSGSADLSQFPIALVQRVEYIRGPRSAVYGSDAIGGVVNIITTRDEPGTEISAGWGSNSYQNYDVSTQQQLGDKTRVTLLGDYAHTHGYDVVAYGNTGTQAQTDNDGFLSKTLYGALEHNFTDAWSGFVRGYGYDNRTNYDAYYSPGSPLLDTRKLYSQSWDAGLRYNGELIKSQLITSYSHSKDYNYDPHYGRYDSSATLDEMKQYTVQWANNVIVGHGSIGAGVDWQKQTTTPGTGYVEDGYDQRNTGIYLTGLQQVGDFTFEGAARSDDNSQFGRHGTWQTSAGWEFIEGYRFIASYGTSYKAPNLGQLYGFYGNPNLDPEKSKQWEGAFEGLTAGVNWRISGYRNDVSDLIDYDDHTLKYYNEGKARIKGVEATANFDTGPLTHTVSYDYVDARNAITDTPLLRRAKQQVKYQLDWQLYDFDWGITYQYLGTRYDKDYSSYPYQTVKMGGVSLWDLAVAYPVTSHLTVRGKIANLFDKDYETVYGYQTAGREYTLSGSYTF

Substance	Kd [1]	Kd [2]
colicin E2 R-domain (from UniProt P04419)	1.5 nM	–
colicin E3 R-domain (from UniProt P00646)	–	1.5 nM
